This passage reports mean fluorescence intensity results from patent US20220204609A1.

Test [1] concerns the target Claudin18.1 on cells (human) (UniProt P56856). Briefly: flow cytometry on 293T-Claudin18.1 cells, antibody at 0.375 µg/mL.
Test [2] shares this target. Briefly: flow cytometry on 293T-Claudin18.1 cells, antibody at 0.75 µg/mL.
For test [3] the target is unchanged. Description: flow cytometry on 293T-Claudin18.1 cells, antibody at 3 µg/mL.
For test [4] the target is unchanged. Description: flow cytometry on 293T-Claudin18.1 cells, antibody at 1.5 µg/mL.
Test [5] has the same target. Description: flow cytometry on 293T-Claudin18.1 cells, antibody at 0.375 µg/mL. This is another data set of the same source.
Test [6] shares this target. Briefly: flow cytometry on 293T-Claudin18.1 cells, antibody at 3 µg/mL. The source holds these as a separate data set.
Test [7] has the same target. Briefly: flow cytometry on 293T-Claudin18.1 cells, antibody at 1.5 µg/mL. This is another data set of the same source.
Test [8] shares this target. Description: flow cytometry on 293T-Claudin18.1 cells, antibody at 0.75 µg/mL. The source holds these as a separate data set.

Claudin18.1 on cells (human), sequence (P56856 whole entry, form in doubt): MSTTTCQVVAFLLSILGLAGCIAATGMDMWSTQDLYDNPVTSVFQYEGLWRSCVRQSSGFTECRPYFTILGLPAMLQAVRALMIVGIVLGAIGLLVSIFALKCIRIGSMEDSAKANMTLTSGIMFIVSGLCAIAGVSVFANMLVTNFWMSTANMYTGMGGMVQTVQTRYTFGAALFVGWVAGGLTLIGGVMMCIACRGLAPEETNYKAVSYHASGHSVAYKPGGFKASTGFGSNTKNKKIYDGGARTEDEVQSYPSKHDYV

With IMAB362 (antibody), the mean fluorescence intensity in test [1] amounted to 15600; in test [2], 32000; in test [3], 12500; in test [4], 17300; in test [5] it was 12800; in test [6], 35600. Further, the mean fluorescence intensity in test [7] worked out at 24900; in test [8], 20700.
